These results are taken from article doi:10.1101/2021.08.20.457142.

The chains are these.
B1: MKK7 D-site peptide (second D-site) / JNK1 alpha1 (MAPK8 isoform 1) L198A, full length (parent complex)
chain 1: SQPQRPRPTLQLPLANEAFEQP
chain 2: MSRSKRDNNFYSVEIGDSTFTVLKRYQNLKPIGSGAQGIVCAAYDAILERNVAIKKLSRPFQNQTHAKRAYRELVLMKCVNHKNIIGLLNVFTPQKSLEEFQDVYIVMELMDANLCQVIQMELDHERMSYLLYQMLCGIKHLHSAGIIHRDLKPSNIVVKSDCTLKILDFGLARTAGTSFMMTPYVVTRYYRAPEVIAGMGYKENVDLWSVGCIMGEMVCHKILFPGRDYIDQWNKVIEQLGTPCPEFMKKLQPTVRTYVENRPKYAGYSFEKLFPDVLFPADSEHNKLKASQARDLLSKMLVIDASKRISVDEALQHPYINVWYDPSEAEAPPPKIPDKQLDEREHTIEEWKELIYKEVMDLEERTKNGVIRGQPSPLAQVQQ

The variants in this assay derive from B1.
On to chain 1 A15D, for which the screen value was 1.08 Z-score of the enrichment rate within one screen of 711 sequences.
With chain 1 A15R the figure was 1.69 Z-score of the enrichment rate within one screen of 711 sequences; with chain 1 A15L, 1.8 Z-score of the enrichment rate within one screen of 711 sequences; with chain 1 A15N, 1.48 Z-score of the enrichment rate within one screen of 711 sequences.
Consider chain 1 A15G, for which the screen value is 1.63 Z-score of the enrichment rate within one screen of 711 sequences.
With chain 1 A15H the figure was 1.57 Z-score of the enrichment rate within one screen of 711 sequences; with chain 1 T9A, chain 1 Q11A, 1.19 Z-score of the enrichment rate within one screen of 711 sequences.
In the case of chain 1 T9G it was 0.628 Z-score of the enrichment rate within one screen of 711 sequences.
Take chain 1 T9R: the screen value was 1.59 Z-score of the enrichment rate within one screen of 711 sequences.
With chain 1 T9K the figure was 1.65 Z-score of the enrichment rate within one screen of 711 sequences.
With chain 1 T9P, the screen value was 0.775 Z-score of the enrichment rate within one screen of 711 sequences.
For the variant chain 1 T9N, the screen value is 1.85 Z-score of the enrichment rate within one screen of 711 sequences.
Regarding chain 1 P6A, chain 1 R7A, the screen value was 0.187 Z-score of the enrichment rate within one screen of 711 sequences.
Consider chain 1 P3A, chain 1 Q4A, for which the screen value was 1.61 Z-score of the enrichment rate within one screen of 711 sequences.
In the case of chain 1 P3A, chain 1 L10A it was -0.251 Z-score of the enrichment rate within one screen of 711 sequences; in that of chain 1 R5C, 0.699 Z-score of the enrichment rate within one screen of 711 sequences; in that of chain 1 R5Y, 0.459 Z-score of the enrichment rate within one screen of 711 sequences.
Consider chain 1 R5L, for which the screen value is 0.573 Z-score of the enrichment rate within one screen of 711 sequences.
With chain 1 R5M the figure was 0.716 Z-score of the enrichment rate within one screen of 711 sequences; with chain 1 R5H, 0.688 Z-score of the enrichment rate within one screen of 711 sequences.
In the case of chain 1 R5S it was 0.06 Z-score of the enrichment rate within one screen of 711 sequences; in that of chain 1 R5F, 1.12 Z-score of the enrichment rate within one screen of 711 sequences.
With chain 1 P3R, the screen value is 1.66 Z-score of the enrichment rate within one screen of 711 sequences.
Turning to chain 1 P3G, the screen value was 1.4 Z-score of the enrichment rate within one screen of 711 sequences.
Consider chain 1 P3H, for which the screen value is 1.27 Z-score of the enrichment rate within one screen of 711 sequences.
With chain 1 P3Q the figure was 1.24 Z-score of the enrichment rate within one screen of 711 sequences; with chain 1 P3W, 1.63 Z-score of the enrichment rate within one screen of 711 sequences.
In the case of chain 1 L10K it was -0.134 Z-score of the enrichment rate within one screen of 711 sequences.
With chain 1 L10C the figure was -0.173 Z-score of the enrichment rate within one screen of 711 sequences.
With chain 1 L10I, the screen value is 0.256 Z-score of the enrichment rate within one screen of 711 sequences.
With chain 1 L10Y the figure was -0.115 Z-score of the enrichment rate within one screen of 711 sequences.
In the case of chain 1 L10M, the screen value was 1.08 Z-score of the enrichment rate within one screen of 711 sequences.
In the case of chain 1 L10F it was 0.606 Z-score of the enrichment rate within one screen of 711 sequences; in that of chain 1 L10E, -0.301 Z-score of the enrichment rate within one screen of 711 sequences.
For chain 1 Q4A, chain 1 L12A, the screen value was -0.309 Z-score of the enrichment rate within one screen of 711 sequences.
In the case of chain 1 P13M it was 1.22 Z-score of the enrichment rate within one screen of 711 sequences; in that of chain 1 P13K, 1.72 Z-score of the enrichment rate within one screen of 711 sequences; in that of chain 1 P13T, 1.03 Z-score of the enrichment rate within one screen of 711 sequences.
In the case of chain 1 P13F it was 1.62 Z-score of the enrichment rate within one screen of 711 sequences; in that of chain 1 P13R, 1.24 Z-score of the enrichment rate within one screen of 711 sequences.
With chain 1 P13G the figure was 0.542 Z-score of the enrichment rate within one screen of 711 sequences; with chain 1 P13E, 1.34 Z-score of the enrichment rate within one screen of 711 sequences; with chain 1 Q4A, chain 1 N16A, 1.68 Z-score of the enrichment rate within one screen of 711 sequences.
With chain 1 N16D, the screen value is 1.03 Z-score of the enrichment rate within one screen of 711 sequences.
With chain 1 N16K the figure was 1.7 Z-score of the enrichment rate within one screen of 711 sequences; with chain 1 N16Q, 1.61 Z-score of the enrichment rate within one screen of 711 sequences; with chain 1 N16S, 1.15 Z-score of the enrichment rate within one screen of 711 sequences.
In the case of chain 1 N16Y it was 1.82 Z-score of the enrichment rate within one screen of 711 sequences; in that of chain 1 N16M, 1.27 Z-score of the enrichment rate within one screen of 711 sequences.
Regarding chain 1 N16R, the screen value was 1.4 Z-score of the enrichment rate within one screen of 711 sequences.
chain 1 P6A, chain 1 P13A: the screen value was 0.914 Z-score of the enrichment rate within one screen of 711 sequences.
With chain 1 P8A, the screen value is 0.456 Z-score of the enrichment rate within one screen of 711 sequences.
In the case of chain 1 P8D it was 0.613 Z-score of the enrichment rate within one screen of 711 sequences; in that of chain 1 P8T, 0.655 Z-score of the enrichment rate within one screen of 711 sequences; in that of chain 1 P8E, 0.296 Z-score of the enrichment rate within one screen of 711 sequences.
As for chain 1 P8S, the screen value is 0.564 Z-score of the enrichment rate within one screen of 711 sequences.
In the case of chain 1 L10A, chain 1 N16A it was -0.696 Z-score of the enrichment rate within one screen of 711 sequences; in that of chain 1 R7A, chain 1 Q11A, 0.044 Z-score of the enrichment rate within one screen of 711 sequences.
As for chain 1 P3A, chain 1 Q11A, the screen value is 1.08 Z-score of the enrichment rate within one screen of 711 sequences.
On to chain 1 P3A, chain 1 T9A, for which the screen value was 0.956 Z-score of the enrichment rate within one screen of 711 sequences.
Turning to chain 1 L14Y, the screen value was 0.328 Z-score of the enrichment rate within one screen of 711 sequences.
In the case of chain 1 L14M it was 0.805 Z-score of the enrichment rate within one screen of 711 sequences; in that of chain 1 L14N, 0.512 Z-score of the enrichment rate within one screen of 711 sequences; in that of chain 1 L14P, 0.76 Z-score of the enrichment rate within one screen of 711 sequences.
As for chain 1 L14H, the screen value is 0.415 Z-score of the enrichment rate within one screen of 711 sequences.
With chain 1 L14Q the figure was 0.637 Z-score of the enrichment rate within one screen of 711 sequences; with chain 1 R7A, chain 1 T9A, 0.112 Z-score of the enrichment rate within one screen of 711 sequences; with chain 1 Q4A, chain 1 L14A, 0.562 Z-score of the enrichment rate within one screen of 711 sequences.
In the case of chain 1 T9A, chain 1 P13A it was 0.848 Z-score of the enrichment rate within one screen of 711 sequences; in that of chain 1 P3A, chain 1 L12A, -0.854 Z-score of the enrichment rate within one screen of 711 sequences.
